Assay in all cases: TAP-MS, N-terminal GS tag
The target in assay [1] is TCP-1 (Arabidopsis thaliana T-complex protein 1 alpha subunit) (Arabidopsis thaliana).
In assay [2] the target is T1, actin-related protein 4 (ARP4) (Arabidopsis thaliana).
T1 sequence (Q84M92 1-441, looked up): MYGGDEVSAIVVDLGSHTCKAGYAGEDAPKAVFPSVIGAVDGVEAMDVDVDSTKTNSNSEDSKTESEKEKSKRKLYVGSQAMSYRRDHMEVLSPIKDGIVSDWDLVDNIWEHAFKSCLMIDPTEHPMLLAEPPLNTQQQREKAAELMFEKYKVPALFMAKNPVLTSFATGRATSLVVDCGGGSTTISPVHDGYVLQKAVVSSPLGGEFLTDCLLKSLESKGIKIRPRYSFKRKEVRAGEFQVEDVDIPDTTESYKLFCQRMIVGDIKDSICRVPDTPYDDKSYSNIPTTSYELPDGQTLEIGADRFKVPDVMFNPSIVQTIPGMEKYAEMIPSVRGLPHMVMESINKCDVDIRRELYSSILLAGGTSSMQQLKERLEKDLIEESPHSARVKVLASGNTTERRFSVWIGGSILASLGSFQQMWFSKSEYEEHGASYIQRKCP

In assay [3] the target is chaperonin (AT3G02530) (Arabidopsis thaliana).
Assay [4] has as its target chaperonin (AT5G26360) (Arabidopsis thaliana).
The target of assay [5] is chaperonin, similar to At3g03960 (AT3G18190) (Arabidopsis thaliana).
For assay [6], the target named is chaperonin, similar to At3g18190 (AT3G03960) (Arabidopsis thaliana).
Assay [7] concerns the target protein coding (AT5G14240) (Arabidopsis thaliana).
The target of assay [8] is unknown, similar to At5g55210 (AT4G22320) (Arabidopsis thaliana).

Sequence of TCP-1 (Arabidopsis thaliana T-complex protein 1 alpha subunit) (Arabidopsis thaliana) (P28769 2-545, one chain of several): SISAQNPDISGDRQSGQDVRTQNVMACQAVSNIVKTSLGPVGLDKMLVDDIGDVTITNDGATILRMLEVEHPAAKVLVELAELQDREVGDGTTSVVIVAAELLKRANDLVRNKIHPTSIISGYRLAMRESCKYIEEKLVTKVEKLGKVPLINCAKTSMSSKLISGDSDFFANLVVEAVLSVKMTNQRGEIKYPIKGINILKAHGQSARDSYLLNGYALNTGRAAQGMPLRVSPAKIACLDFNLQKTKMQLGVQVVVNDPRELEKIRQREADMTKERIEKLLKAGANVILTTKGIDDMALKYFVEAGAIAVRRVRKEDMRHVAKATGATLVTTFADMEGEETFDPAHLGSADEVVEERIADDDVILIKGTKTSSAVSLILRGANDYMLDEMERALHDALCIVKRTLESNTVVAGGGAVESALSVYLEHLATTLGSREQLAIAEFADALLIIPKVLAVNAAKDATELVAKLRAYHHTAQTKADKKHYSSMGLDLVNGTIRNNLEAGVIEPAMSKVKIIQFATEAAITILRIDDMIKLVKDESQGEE

B1: GS-ARP7 (protein, UniProt Q8L4Y5 1-363, looked up)
Actin-related protein 7: MEALVVDAGSKFLKAGAAIPDQSPAMIIPSQMKRMVDDGSSSADNPTTVFEDVTLDPIERGLIRDWDAMEDLLRYVVYTGLGWEEGNEGNILFTDPLCTPKAIREQLVQLMFETFNVSGFYASEQAVLSLYAVGRISGCTVDIGHGKIDIAPVLEGAVQHIASKRFELGGTELTKLFAQELGKTNPSMNLSMSDVEKLKEQYANCAEDEIAYKKTQNCEIEQHTLPDGQVISIGRERYSVGEALFQPSILGLEEHGIVEQLVRIISTVSSENHRQLLENTVLCGGTTSMTGFESRFQKEANLCSSAIRPTLVKPPEYMPENLGMYSAWVGGAILAKVVFPQNQHVTKADYDETGPSVVHRKCF
modifications: N-terminal GS tag
Turning to B1, the N-GS (times co-purified) in assay [1] is 2; in assay [2], 1; in assay [3] it was 2; in assay [4] it was 2; in assay [5], 2; in assay [6], 2. Besides, the N-GS (times co-purified) in assay [7] and in assay [8] was 2 each time.
